Key:
[1] = molecular target: human DLL3 endogenously expressed on SHP77 and NCI-H82 cells (human) (UniProt Q9NYJ7); test: FACS SHP77 cells, 0.8 nM
[2] = molecular target: human DLL3 endogenously expressed on SHP77 and NCI-H82 cells (human) (UniProt Q9NYJ7); test: FACS SHP77 cells, 0.16 nM
[3] = molecular target: human DLL3 endogenously expressed on SHP77 and NCI-H82 cells (human) (UniProt Q9NYJ7); test: FACS SHP77 cells, 0.032 nM
[4] = molecular target: human DLL3 endogenously expressed on SHP77 and NCI-H82 cells (human) (UniProt Q9NYJ7); test: FACS SHP77 cells, 100 nM
[5] = molecular target: human DLL3 endogenously expressed on SHP77 and NCI-H82 cells (human) (UniProt Q9NYJ7); test: FACS SHP77 cells, 0.0064 nM
[6] = molecular target: human DLL3 endogenously expressed on SHP77 and NCI-H82 cells (human) (UniProt Q9NYJ7); test: FACS SHP77 cells, 20 nM
[7] = molecular target: human DLL3 endogenously expressed on SHP77 and NCI-H82 cells (human) (UniProt Q9NYJ7); test: FACS SHP77 cells, 4 nM
[8] = molecular target: human DLL3 endogenously expressed on SHP77 and NCI-H82 cells (human) (UniProt Q9NYJ7); test: FACS SHP77 cells, 0.00128 nM

human DLL3 endogenously expressed on SHP77 and NCI-H82 cells (human), sequence (Q9NYJ7 27-618): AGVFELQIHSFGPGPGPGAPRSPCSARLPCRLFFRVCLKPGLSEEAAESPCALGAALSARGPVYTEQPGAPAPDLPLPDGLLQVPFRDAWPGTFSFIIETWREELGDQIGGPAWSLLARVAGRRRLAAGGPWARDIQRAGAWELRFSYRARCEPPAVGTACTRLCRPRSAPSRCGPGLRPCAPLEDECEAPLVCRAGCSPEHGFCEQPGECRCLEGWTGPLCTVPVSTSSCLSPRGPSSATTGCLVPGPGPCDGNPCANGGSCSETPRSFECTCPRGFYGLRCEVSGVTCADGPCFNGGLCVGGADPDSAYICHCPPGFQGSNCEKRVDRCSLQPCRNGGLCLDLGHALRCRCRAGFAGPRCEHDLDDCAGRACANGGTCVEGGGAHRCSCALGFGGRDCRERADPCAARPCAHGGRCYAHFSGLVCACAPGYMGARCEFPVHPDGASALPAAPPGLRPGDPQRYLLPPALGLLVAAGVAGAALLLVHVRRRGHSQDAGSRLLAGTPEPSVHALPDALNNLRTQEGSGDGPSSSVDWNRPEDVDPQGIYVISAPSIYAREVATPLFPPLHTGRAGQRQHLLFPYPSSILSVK

MFI [1] | MFI [2] | MFI [3] | MFI [4] | MFI [5] | MFI [6] | MFI [7] | MFI [8] | Binder
498 MFI | 518 MFI | 371 MFI | 596 MFI | 255 MFI | 548 MFI | 535 MFI | 197 MFI | mab002 scFv-hFc (Fc fusion, not shown: small tags and cut ends; a dimerising Fc or GST) scFv (part 1 of 2): QIVLTQSPAIMSASPGEKVTMTCSARSSVSYMQWYQQKSGTSPKRWIYDTSKLASGVPARFSGSGSGTSYSLTISTMEAEDAATYYCQQWSSDPPTFGGGTKLEIK scFv (part 2 of 2): QIQLVQSGPELKKPGETVKISCKASGYTFTNYGMNWLKQAPGKGLKWMGWINTYTGESTYADDFKGRFAFSLETSASTVYLQINNLKNEDMATYFCARMGDGYYDFTMDYWGQGTSVTVSS
404 MFI | 287 MFI | 172 MFI | 543 MFI | 125 MFI | 486 MFI | 451 MFI | 117 MFI | mab005 scFv-hFc (Fc fusion, not shown: small tags and cut ends; a dimerising Fc or GST) scFv (part 1 of 2): DIVLTQSPATLSVTPGDSVSLSCRASQSVSNDLHWYQQKSHESPRLLIKYASQSISGIPSRFSGSGSGTDFTLTINSVETEDFGMYFCQQSNNWPYTFGGGTKLEMK scFv (part 2 of 2): QVQLQQSGAELMKPGASVTLSCKATGYTLPGYWIEWVKQRPGHGLEWIGEILPGSSSANYNEKFKGKATFTADTSSNTAYMQLSSLTTEDSAIYYCASTYGTSLDYWGQGTTLTVSS

Reference: patent EP4786492A1
